One test has as its target T1, FLAG-BRAF (1-766) (Homo sapiens (Human), UniProt P15056 1-766).
T1 construct: Expressed in M7609 cells from plasmid pCV6-Myc-DDK-BRAF (OriGene Technologies); also called full-length BRAF protein; BRAF with the extension; not shown: FLAG tag (DDK tag) at the C-terminus
The test is described as follows: co-immunoprecipitation from M7609 cell lysate on anti-FLAG M2 magnetic beads, Western blot with anti-GSTP1. The method, then:
(§1) The transfected cells were used for coimmunoprecipitation. The cells were lysed by incubation in 0.5% NP-40 lysis buffer (0.5% NP-40, 20 mM HEPES pH 7.4, 150 mM NaCl, 1 mM MgCl₂, 1 mM EGTA, 10% glycerol, Complete, Mini (Roche Diagnostics) and PhosSTOP (Roche Diagnostics)) on ice for 30 min. Centrifugation was performed to give a supernatant as a cell lysate. The cell lysates obtained from the samples and containing the same amount of protein were each incubated with anti-FLAG M2 magnetic beads (Sigma-Aldrich) at 4° C. for 2 h to overnight, so that each FLAG-tagged protein was attached to the beads. The beads were washed four times with 0.5% NP-40 lysis buffer.
(§2) Each sample for western blotting was prepared from the beads obtained after the coimmunoprecipitation, and then subjected to SDS-PAGE for protein separation. The separated protein was transferred to a PVDF membrane. The membrane was incubated with a primary antibody solution and then washed. The primary antibody used was an anti-GSTP1 antibody (Medical & Biological Laboratories Co., Ltd.), an anti-FLAG antibody (F3165, Sigma-Aldrich), or an anti-GAPDH antibody (Abcam plc.). The membrane was then incubated with a secondary antibody (goat secondary antibody to rabbit or mouse IgG) solution and then washed. The signal on the membrane was visualized using ECL or ECL prime Western blotting detection system (GE Healthcare). […]
In general terms: Immunoblotting shows a protein as a band on a membrane.

A further test has as its target T2, FLAG-CRAFΔN (193-648) (human, UniProt P04049 193-648).
T2 construct: Expressed in M7609 cells from a pCMV6-Entry vector; also called CRAF protein with a deletion at the N-terminal moiety; not shown: FLAG tag at the C-terminus (plasmid pCMV6-Myc-DDK-CRAFΔN)
Described as above. As for the experimental part: as §1, §2

The source of these data is patent US20200370050A1 (published 2020).

T1 sequence (P15056 whole entry): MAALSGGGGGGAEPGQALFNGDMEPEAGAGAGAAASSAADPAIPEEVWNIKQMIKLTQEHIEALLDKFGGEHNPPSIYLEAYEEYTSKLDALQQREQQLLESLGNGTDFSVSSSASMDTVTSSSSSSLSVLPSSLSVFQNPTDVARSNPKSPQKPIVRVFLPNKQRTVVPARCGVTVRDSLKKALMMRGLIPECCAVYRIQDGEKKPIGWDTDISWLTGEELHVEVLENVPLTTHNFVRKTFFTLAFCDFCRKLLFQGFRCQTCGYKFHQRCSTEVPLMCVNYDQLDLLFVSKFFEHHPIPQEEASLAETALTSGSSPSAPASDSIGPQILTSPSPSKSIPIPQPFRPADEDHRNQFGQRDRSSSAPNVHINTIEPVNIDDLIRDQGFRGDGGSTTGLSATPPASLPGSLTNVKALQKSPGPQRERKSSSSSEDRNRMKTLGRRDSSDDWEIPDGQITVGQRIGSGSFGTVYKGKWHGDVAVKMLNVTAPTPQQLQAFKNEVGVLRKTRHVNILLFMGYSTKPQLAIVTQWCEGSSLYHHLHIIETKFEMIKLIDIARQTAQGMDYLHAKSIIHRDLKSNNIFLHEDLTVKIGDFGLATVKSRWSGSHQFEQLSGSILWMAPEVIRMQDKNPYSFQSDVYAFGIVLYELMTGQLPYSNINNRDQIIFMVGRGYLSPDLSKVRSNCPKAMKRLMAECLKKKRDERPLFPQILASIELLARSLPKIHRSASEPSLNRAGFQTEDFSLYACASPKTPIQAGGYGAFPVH

B1: GSTP1 (endogenous, in lysates of KRAS mutation-positive colon cancer cells) (enzyme)
chain: PPYTVVYFPVRGRCAALRMLLADQGQSWKEEVVTVETWQEGSLKASCLYGQLPKFQDGDLTLYQSNTILRHLGRTLGLYGKDQQEAALVDMVNDGVEDLRCKYISLIYTNYEAGKDDYVKALPGQLKPFETLLSQNQGGKTFIVGDQISFADYNLLDLLLIHEVLAPGCLDAFPLLSAYVGRLSARPKLKAFLASPEYVNLPINGNGKQ
notes: also called glutathione S-transferase pi; endogenous GSTP1
For the molecule B1, the binding result with FLAG-BRAF (1-766) and with FLAG-CRAFΔN (193-648) was “no binding” in each case.
